Results as given in US20150044245A1, “PARTIAL MHC CONSTRUCTS AND METHODS OF USE” (Oregon Health & Science University, priority 2012, published 2015).
Where two headings read alike, the source gives them in different places.

Experiments:
[1] = test system: hMOG-35-55-induced EAE in DR*1502-Tg mice; conditions: treated at disease onset
Experimental: In addition, mice were given pertussis toxin (Ptx) from List Biological Laboratories (Campbell, Calif.) on days 0 and 2 post-immunization (75 ng and 200 ng per mouse, respectively). Immunized mice were assessed daily for clinical signs of EAE on a 6 point scale of combined hind limb and forelimb paralysis scores. For hind limb scores: 0=normal; 0.5=limp tail or mild hind limb weakness (e.g., a mouse cannot resist inversion after a 90° turn of the base of the tail); 1=limp tail and mild hind limb weakness; 2=limp tail and moderate hind limb weakness (e.g., an inability of the mouse to rapidly right itself after inversion); 3=limp tail and moderately severe hind limb weakness (e.g., inability of the mouse to right itself after inversion and clear tilting of hind quarters to either side while walking); 4=limp tail and severe hind limb weakness (hind feet can move but drag more frequently than face forward); 5=limp tail and paraplegia (no movement of hind limbs). Front limb paralysis scores are either 0.5 for clear restriction in normal movement or 1 for complete forelimb paralysis. The combined score is the sum of the hind limb score and the forelimb score.
(§3) Rarely, there was mortality of HLA-DR2 mice with severe EAE and in these cases, mice were scored as a 6 for the remainder of the experiment. Mean EAE scores and standard deviations for mice grouped according to initiation of RTL or vehicle treatment were calculated for each day and summed for the entire experiment (Cumulative Disease Index, CDI, represents total disease load). Daily mean scores were analyzed by a two-tailed Mann Whitney U test for nonparametric comparisons between vehicle and pDR2 treatment groups. Mean CDIs were analyzed by a one way ANOVA with Tukey post-test, and a nonparametric one way Kruskal-Wallis ANOVA with Dunn's multiple comparisons post-test to confirm significance between all groups.
(§4) pDR2 constructs (Table 3) were injected subcutaneously daily for 5 days at the indicated doses to treat EAE induced in HLA-DR2-Tg and MBP-TCR/DR2-Tg mice and clinical signs were scored as described above. […] Fab1B11 alone in vehicle was run as a negative control.

[2] = test system: CD80; assay: CD80 expression on CD11b+ monocytes from spinal cord of treated EAE mice; format: in vivo, mouse; conditions: day 15 post-immunization
Experimental: EAE was induced in mice by immunization with mMOG-35-55. At disease onset, the mice were treated with one of the following constructs: (i) pDR2 with covalently bound mMOG-35-55 (100 μg), (ii) pDR2 without peptide (1000 μg), (iii) DR-α1 (750 μg), or (iv) vehicle alone. The constructs were administered subcutaneously for two sequential days. On day 15 post-immunization, mice were sacrificed and spinal cords were harvested and pooled for each group. Isolated cells were stained for CD74, CD11b, CD80, ICAM, and HLA-DR expression and analyzed by FACS.

[3] = test system: mMOG-35-55-induced EAE in DR*1501-Tg mice; conditions: for effect on EAE (in words): mMOG-35-55-induced EAE
[4] = biological target: T1, CD74 (Mus musculus, UniProt P04441); assay: Direct binding of FITC-labeled constructs to immuno-adsorbed CD74; conditions: FITC-labeled ligand, immuno-adsorbed CD74, 4 hours at 4° C., 1% CHAPS; read-out: CD74 One binding site KD
T1 construct: DR*1501-Tg splenocytes were biotinylated and lysed as described above and CD74 was immunoprecipitated overnight; endogenous in cells; host or cells: splenocytes of DR*1501-Tg mice (surface-biotinylated, lysed in 1% CHAPS/TEN; CD74 captured on Protein L / ln-1 beads)
T1 sequence (P04441 1-215 isoform P04441-2): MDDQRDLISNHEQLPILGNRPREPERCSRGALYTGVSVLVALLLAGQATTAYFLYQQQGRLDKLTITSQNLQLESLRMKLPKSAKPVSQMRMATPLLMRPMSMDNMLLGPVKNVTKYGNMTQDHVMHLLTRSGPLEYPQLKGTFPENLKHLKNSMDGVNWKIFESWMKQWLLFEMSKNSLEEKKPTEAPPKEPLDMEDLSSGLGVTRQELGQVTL
Experimental: (§1) In order to test ligand binding to the separate components of the RTL receptor, DR*1501-Tg splenocytes were biotinylated and lysed as described above and CD74 was immunoprecipitated overnight at 4° C. with the anti-CD74 monoclonal antibody ln-1. Immune complexes (Protein L-beads/ln-1/CD74) were analyzed for their ability to bind FITC-labeled pDR2RTL constructs by performing a direct binding saturation with increasing concentration of the different constructs (0 to 10 nM). Binding was carried out for 4 hours at 4° C. with gentle shaking and in the presence of 1% CHAPS in TEN buffer. Afterwards the complexes were washed thoroughly with 1% CHAPS/TEN and once with only TEN buffer to remove excess detergent. Bound proteins were eluted in 2% SDS electrophoresis sample buffer at 90° C. for 6 to 8 minutes and beads were sedimented. After the supernatant was collected and proteins separated using 10-20% SDS-PAGE, the gel was scanned for FITC chromophore and quantified by densitometry. Ligand concentration was plotted versus the fluorescence intensity of the bands and the curve generated was fit to one or two binding sites with the GraphPad Prism® Software. […] Direct binding to saturating concentrations of the pDR2 constructs was carried out and analyzed as described above.

[5] = biological target: T1, CD74; assay: Coimmunoprecipitation of FITC-labeled constructs with CD74; format: binding; conditions: FITC-labeled construct, bead-immunopurified CD74
Experimental: For immunoprecipitation experiments, antibody TU39 (BD Pharmingen) was pre-bound to bead-conjugated Protein A for 2 hours in ice-cold TEN-TX100 or TEN-CHAPS followed by RTL binding to these complexes. Lysate (previously pre-cleared with bead-conjugated Protein A) was added to the tube and binding was carried out overnight at 4° C. with soft orbital shaking Samples were extensively washed with TEN buffer and the appropriate detergent. For CD74 immunoprecipitation, ln-1 mAb was adsorbed to bead-conjugated Protein L as described above and pre-cleared lysate was added to this mixture. When necessary, bound material was eluted by boiling the immune complexes in electrophoresis sample buffer and analyzed by SDS-PAGE and Western blot.
(§2) For direct binding of RTL constructs, Protein-L/ln-1/CD74 complexes were prepared as described above. Labeled ligand constructs were incubated for 4 hours at 4° C. in 1% CHAPS in TEN buffer and free ligand was removed by extensive washing. Elution of bound proteins was carried out as described above and the eluate was analyzed by SDS-P AGE. […] In all assays involving fluorescent labeling, the chromophore was detected by scanning at the appropriate wavelength using a Molecular Imager® FX scanner (Bio-Rad) and the fluorescence intensity was determined using Quantity One® software (Bio-Rad) associated with the imager.

[6] = test system: MBP-85-99-induced EAE in MBP-TCR/DR2-Tg mice
Experimental: HLA-DR2 positive male and female mice between 8 and 12 weeks of age were immunized subcutaneously at four sites on the flanks with 0.2 ml of an emulsion of 200 μg immunogenic peptide and complete Freund's adjuvant containing 400 μg of heat-killed Mycobacterium tuberculosis H37RA (Difco, Detroit, Mich.) (Vandenbark et al, J Immunol 171:127-133, 2003; Buenafe et al, Immunology 130:114-124, 2010). In addition, mice were given pertussis toxin (Ptx) from List Biological Laboratories (Campbell, Calif.) on days 0 and 2 post-immunization (75 ng and 200 ng per mouse, respectively). Immunized mice were assessed daily for clinical signs of EAE on a 6 point scale of combined hind limb and forelimb paralysis scores. For hind limb scores: 0=normal; 0.5=limp tail or mild hind limb weakness (e.g., a mouse cannot resist inversion after a 90° turn of the base of the tail); 1=limp tail and mild hind limb weakness; 2=limp tail and moderate hind limb weakness (e.g., an inability of the mouse to rapidly right itself after inversion); 3=limp tail and moderately severe hind limb weakness (e.g., inability of the mouse to right itself after inversion and clear tilting of hind quarters to either side while walking); 4=limp tail and severe hind limb weakness (hind feet can move but drag more frequently than face forward); 5=limp tail and paraplegia (no movement of hind limbs). Front limb paralysis scores are either 0.5 for clear restriction in normal movement or 1 for complete forelimb paralysis. The combined score is the sum of the hind limb score and the forelimb score.
as §3, §4

[7] = biological target: MHC class II from DR*1501-Tg mice; assay: Direct binding of FITC-labeled constructs to MHC class II immuno-adsorbed from CD74-depleted lysate; design: species or system mouse; conditions: FITC-labeled ligand, read-out: MHC Class II One binding site KD
Experimental: as §1

[8] = biological target: T1, CD74; assay: Competition with labeled RTL1000 for binding to immunoprecipitated CD74; conditions: unlabeled competitor
Experimental: as §2

[9] = biological target: T2, CD74 (Mus musculus, UniProt P04441); assay: CD74 cell-surface expression on CD11b+ monocytes in vitro (FACS); format: cell-based; conditions: naïve CD11b+ monocytes, 1 hour at 37° C.
T2 construct: endogenous in cells; host or cells: CD11b+ monocytes of DR2 (DR*1501)-Tg mice: naive blood cells in vitro; blood, spleen and spinal cord cells of treated EAE mice
T2 sequence (P04441 1-279): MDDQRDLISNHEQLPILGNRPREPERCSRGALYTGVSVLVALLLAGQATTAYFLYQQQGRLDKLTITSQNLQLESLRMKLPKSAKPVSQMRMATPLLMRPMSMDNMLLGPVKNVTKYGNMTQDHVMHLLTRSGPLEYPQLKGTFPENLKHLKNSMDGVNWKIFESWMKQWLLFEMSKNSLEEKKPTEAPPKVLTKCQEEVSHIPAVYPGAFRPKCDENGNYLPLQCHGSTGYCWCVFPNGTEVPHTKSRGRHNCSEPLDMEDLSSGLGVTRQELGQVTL
Experimental: Analysis of naive DR2 PBMC subtypes was preformed using four-color (fluorescein isothiocyanate (FITC), phycoerythrin (PE), propidium iodide, allophycocyanin) flow cytometry. Blood was collected from naive DR2 mice through cardiac exsanguination into 1X PBS/EDTA. After washing blood in 1X PBS, the red blood cells were lysed with 1X RBC lysis buffer (eBioscience, Inc., San Diego, Calif.) followed by two washes in RPMI. One million cells were incubated in RPMI with 1 μg unlabeled pDR2, 1 μg pDR2FITC, or 1 μg Fab Neutralized pDR2FITC for one hour at 37° C. For samples assessing Fab neutralization of pDR2 binding, pDR2s were incubated with 1:1 molar ratio of Fab1B11 or FabD2 for two hours at room temperature prior to incubation with cells, pDR2 incubation was followed directly by a 30 minute incubation at 4° C. with CD3 PE (ebioscience, Inc., San Diego, Calif.), CD74 PE (Santa Cruz Biotechnology, Inc., Santa Cruz, Calif.), or CD11b PE, CD11b allophycocyanin, CD11c allophycocyanin, CD19 allophycocyanin (BD Pharmingen, San Diego, Calif.). Antibodies and pDR2 were thoroughly removed by two additional washes in 1X PBS/0.5% BSA staining media. Cells were resuspended in staining media containing propidium iodide and immediately analyzed with a FACSCALIBUR™ using FCS EXPRESS™ software (BD Biosciences, San Jose, Calif.). […]

[10] = DR*1501-Tg mice, mMOG-35-55/CFA/Ptx EAE, treated at disease onset
[11] = MBP-TCR/DR2-Tg mice, treated for five days following onset

B1: RTL302-5D: Human HLA DR2 (DRB1*1501/DRA*0101) β1α1 domains (V102D, I104D, A106D, F108D, L110D), no peptide (protein)
chain: MGDTRPRFLWQPKRECHFFNGTERVRFLDRYFYNQEESVRFDSDVGEFRAVTELGRPDAEYWNSQKDILEQARAAVDTYCRHNYGVVESFTVQRRVIKEEHDIDQDEDYDNPDQSGEFMFDFDGDEIFHVDMAKKETVWRLEEFGRFASFEAQGALANIAVDKANLEIMTKRSNYTPITN
- CDI ([1]; cumulative disease index): 36.8 ± 7.1
- Incidence ([1]; hMOG-35-55/CFA/Ptx EAE): 6/6
- Onset ([1]; hMOG-35-55/CFA/Ptx EAE): 15.0 ± 1.7
- Peak ([1]; peak clinical EAE score): 2.9 ± 0.5
- Mortality [1]: 0
- CD80 expression (in words) [2]: decreased
- CDI ([3]; 100 μg x 5 (Table 11)): 43.1 ± 10.6
- Incidence ([3]; 100 μg x 5 (Table 11)): 9/9
- Mortality ([3]; 100 μg x 5 (Table 11)): 0
- Onset ([3]; 100 μg x 5 (Table 11)): 11.7 ± 1.1
- Peak ([3]; 100 μg x 5 (Table 11)): 3.3 ± 0.9
- CDI ([3]; 1 mg x 2 (Table 11)): 34.2 ± 6.2
- Incidence ([3]; 1 mg x 2 (Table 11)): 3/3
- Mortality ([3]; 1 mg x 2 (Table 11)): 0
- Onset ([3]; 1 mg x 2 (Table 11)): 9.0 ± 0.0
- Peak ([3]; 1 mg x 2 (Table 11)): 2.8 ± 0.3
- Incidence [3, 10]: 9/9
- Onset [3, 10]: 11.7 ± 1.1
- Mortality ([3]; DR*1501-Tg mice, treated at disease onset): 0
- CDI ([3]; cumulative disease index, DR*1501-Tg mice, treated at disease onset): 42.9 ± 10.7
- effect on EAE (in words) ([3]; listed as pDR2/no peptide): significant reduction of daily and cumulative EAE scores compared to treatment with vehicle
- effect on EAE (in words) ([3]; listed as pDR2 without peptide): lower than those treated with vehicle alone
- Peak ([3]; peak clinical EAE score, DR*1501-Tg mice, treated at disease onset): 3.3 ± 0.9
- Kd [4]: > 10 nM
- coimmunoprecipitation with CD74 (in words) [5]: also coimmunoprecipitated with CD74, but at much lower levels
- effect on EAE (in words) ([6]; MBP-85-99-induced EAE): ineffective at treating EAE
- CDI [6, 11]: 43.3 ± 12.0
- Incidence [6, 11]: 6/6
- Mortality [6, 11]: 0
- Onset [6, 11]: 17.5 ± 5.0
- Peak [6, 11]: 3.7 ± 0.8
- Kd [7]: > 10 nM

B2: DR-α1: construct comprising DR-α1 domain alone (with no DR2-β1 domain or peptide) (protein)
chain: IKEEHVIIQAEFYLNPDQSGEFMFDFDGDEIFHVDMAKKETVWRLEEFGRFASFEAQGALANIAVDKANLEIMTKRSNYTPITN
- competition with pDR2/hMOG-35-55 for binding to CD74 (in words) [8]: competed with pDR2/hMOG-35-55 for binding to CD74
- CD74 expression versus construct binding/concentration (in words) [9]: inverse relationship between pMHC concentration and CD74 expression
- CDI ([3]; 100 μg daily X2 (Table 12)): 32.9 ± 7.8
- Incidence ([3]; 100 μg daily X2 (Table 12)): 4/4
- Mortality ([3]; 100 μg daily X2 (Table 12)): 0
- Onset ([3]; 100 μg daily X2 (Table 12)): 10.0 ± 1.2
- Peak ([3]; 100 μg daily X2 (Table 12)): 2.6 ± 0.5
- CDI ([3]; 300 μg daily X2 (Table 12)): 24.1 ± 10.3
- Incidence ([3]; 300 μg daily X2 (Table 12)): 11/11
- Mortality ([3]; 300 μg daily X2 (Table 12)): 0
- Onset ([3]; 300 μg daily X2 (Table 12)): 9.5 ± 0.8
- Peak ([3]; 300 μg daily X2 (Table 12)): 2.3 ± 0.6
- CDI ([3]; 500 μg daily X2 (Table 12)): 20.7 ± 12.7
- Incidence ([3]; 500 μg daily X2 (Table 12)): 10/10
- Mortality ([3]; 500 μg daily X2 (Table 12)): 0
- Onset ([3]; 500 μg daily X2 (Table 12)): 9.6 ± 0.7
- Peak ([3]; 500 μg daily X2 (Table 12)): 2.5 ± 0.7
- CDI ([3]; 1000 μg daily X2 (Table 12)): 21.1 ± 9.9
- Incidence ([3]; 1000 μg daily X2 (Table 12)): 6/6
- Mortality ([3]; 1000 μg daily X2 (Table 12)): 0
- Onset ([3]; 1000 μg daily X2 (Table 12)): 10.7 ± 1.0
- Peak ([3]; 1000 μg daily X2 (Table 12)): 2.3 ± 0.4
- effect on EAE (in words) [3]: lower than those treated with vehicle alone
- coimmunoprecipitation with CD74 (in words) [5]: coimmunoprecipitated with CD74
- Kd [7]: > 10 nM
